B1: AQ1-KGP-Glu^γ-C14-COOH (ligand)
chain 1: XLYSALANKCCHVGCTKRSLARFC
chain 2: ASWMEEVIKLCGRELVRAQIAICGMSTWS
peptide: KGPE
modifications: not fully specified; Glu^γ bonded by amide to fatty acid -C14-COOH; oxime-linked to pAcF of the A chain; pAcF (para-acetyl-L-phenylalanine) at position 1, oxime-linked to PK enhancer KGP-Glu^γ-C14-COOH
B2: AQ1-EEEEEE-Glu^γ-C14-CH3 (ligand)
chain 1: XLYSALANKCCHVGCTKRSLARFC
chain 2: ASWMEEVIKLCGRELVRAQIAICGMSTWS
peptide: EEEEEEE
modifications: not fully specified; Glu^γ bonded by amide to fatty acid -C14-CH3; oxime-linked to pAcF of the A chain; pAcF (para-acetyl-L-phenylalanine) at position 1, oxime-linked to PK enhancer EEEEEE-Glu^γ-C14-CH3
B3: AQ1-KK-Glu^γ-C13-COOH (ligand)
chain 1: XLYSALANKCCHVGCTKRSLARFC
chain 2: ASWMEEVIKLCGRELVRAQIAICGMSTWS
peptide: KKE
modifications: not fully specified; Glu^γ bonded by amide to fatty acid -C13-COOH; oxime-linked to pAcF of the A chain; pAcF (para-acetyl-L-phenylalanine) at position 1, oxime-linked to PK enhancer …
B4: AQ1-KGGEEKKKEKEKEPKGGEEKKKEKEK-Glu^γ-C15-COOH (ligand)
chain 1: XLYSALANKCCHVGCTKRSLARFC
chain 2: ASWMEEVIKLCGRELVRAQIAICGMSTWS
peptide: KGGEEKKKEKEKEPKGGEEKKKEKEKE
modifications: not fully specified; Glu^γ bonded by amide to fatty acid -C15-COOH; oxime-linked to pAcF of the A chain; pAcF (para-acetyl-L-phenylalanine) at position 1, oxime-linked to PK enhancer KGGEEKKKEKEKEPKGGEEKKKEKEK-Glu^γ-C15-COOH
B5: AQ1-KK-Glu^γ-C15-COOH (ligand)
chain 1: XLYSALANKCCHVGCTKRSLARFC
chain 2: ASWMEEVIKLCGRELVRAQIAICGMSTWS
peptide: KKE
modifications: not fully specified; Glu^γ bonded by amide to fatty acid -C15-COOH; oxime-linked to pAcF of the A chain; pAcF (para-acetyl-L-phenylalanine) at position 1, oxime-linked to PK enhancer …
B6: AQ1-20kDa PEG (ligand)
chain 1: XLYSALANKCCHVGCTKRSLARFC
chain 2: ASWMEEVIKLCGRELVRAQIAICGMSTWS
modifications: pAcF (para-acetyl-L-phenylalanine) at position 1, oxime-linked to 20 kDa PEG
B7: AQ1-KK-Glu^γ-C14-COOH (ligand)
chain 1: XLYSALANKCCHVGCTKRSLARFC
chain 2: ASWMEEVIKLCGRELVRAQIAICGMSTWS
peptide: KKE
modifications: not fully specified; Glu^γ bonded by amide to fatty acid -C14-COOH; oxime-linked to pAcF of the A chain; pAcF (para-acetyl-L-phenylalanine) at position 1, oxime-linked to PK enhancer …
B8: AQ1-KGGGS-Glu^γ-C14-COOH (ligand)
chain 1: XLYSALANKCCHVGCTKRSLARFC
chain 2: ASWMEEVIKLCGRELVRAQIAICGMSTWS
peptide: KGGGSE
modifications: not fully specified; Glu^γ bonded by amide to fatty acid -C14-COOH; oxime-linked to pAcF of the A chain; pAcF (para-acetyl-L-phenylalanine) at position 1, oxime-linked to PK enhancer KGGGS-Glu^γ-C14-COOH
B9: AQ1-EEEEGEEEEGEEEEGEEEE-Gluγ-C14-CH3 (ligand)
chain 1: XLYSALANKCCHVGCTKRSLARFC
chain 2: ASWMEEVIKLCGRELVRAQIAICGMSTWS
peptide: EEEEGEEEEGEEEEGEEEEE
modifications: not fully specified; Glu^γ bonded by amide to fatty acid -C14-CH3; oxime-linked to pAcF of the A chain; pAcF (para-acetyl-L-phenylalanine) at position 1, oxime-linked to PK enhancer EEEEGEEEEGEEEEGEEEE-Gluγ-C14-CH3
B10: AQ1-KK-Glu^γ-C14-CH3 (ligand)
chain 1: XLYSALANKCCHVGCTKRSLARFC
chain 2: ASWMEEVIKLCGRELVRAQIAICGMSTWS
peptide: KKE
modifications: not fully specified; Glu^γ bonded by amide to fatty acid -C14-CH3; oxime-linked to pAcF of the A chain; pAcF (para-acetyl-L-phenylalanine) at position 1, oxime-linked to PK enhancer KK-Glu^γ-C14-CH3
B11: AQ1-SGGGS-Glu^γ-C14-COOH (ligand)
chain 1: XLYSALANKCCHVGCTKRSLARFC
chain 2: ASWMEEVIKLCGRELVRAQIAICGMSTWS
peptide: SGGGSE
modifications: not fully specified; Glu^γ bonded by amide to fatty acid -C14-COOH; oxime-linked to pAcF of the A chain; pAcF (para-acetyl-L-phenylalanine) at position 1, oxime-linked to PK enhancer SGGGS-Glu^γ-C14-COOH
B12: AQ1-GGGGS-Glu^γ (SEQ ID NO: 139)-C14-COOH (ligand)
chain 1: XLYSALANKCCHVGCTKRSLARFC
chain 2: ASWMEEVIKLCGRELVRAQIAICGMSTWS
peptide: GGGGSE
modifications: not fully specified; Glu^γ bonded by amide to fatty acid -C14-COOH (-(C=O)-(CH2)13-COOH); oxime-linked to pAcF of the A chain; modified para-acetyl-L-phenylalanine at the N-terminus (position 1), oxime-linked to PK enhancer GGGGS-Glu^γ-C14-COOH (Formula III)
B13: AQ1-EEEEPEEEEPEEEEPEEGGG-C14-CH3 (ligand)
chain 1: XLYSALANKCCHVGCTKRSLARFC
chain 2: ASWMEEVIKLCGRELVRAQIAICGMSTWS
peptide: EEEEPEEEEPEEEEPEEGGG
modifications: linked to fatty acid -C14-CH3; oxime-linked to pAcF of the A chain; pAcF (para-acetyl-L-phenylalanine) at position 1, oxime-linked to PK enhancer EEEEPEEEEPEEEEPEEGGG-C14-CH3
B14: AQ1-EEEEPEEEEPEEEEPEEEE-Glu^γ-C15-CH3 (ligand)
chain 1: XLYSALANKCCHVGCTKRSLARFC
chain 2: ASWMEEVIKLCGRELVRAQIAICGMSTWS
peptide: EEEEPEEEEPEEEEPEEEEE
modifications: not fully specified; Glu^γ bonded by amide to fatty acid -C15-CH3; oxime-linked to pAcF of the A chain; pAcF (para-acetyl-L-phenylalanine) at position 1, oxime-linked to PK enhancer EEEEPEEEEPEEEEPEEEE-Glu^γ-C15-CH3
B15: AQ1-KGPKGP-Glu^γ-C14-COOH (ligand)
chain 1: XLYSALANKCCHVGCTKRSLARFC
chain 2: ASWMEEVIKLCGRELVRAQIAICGMSTWS
peptide: KGPKGPE
modifications: not fully specified; Glu^γ bonded by amide to fatty acid -C14-COOH; oxime-linked to pAcF of the A chain; pAcF (para-acetyl-L-phenylalanine) at position 1, oxime-linked to PK enhancer KGPKGP-Glu^γ-C14-COOH
B16: AQ1-KGGGSE-Glu^γ-C14-COOH (ligand)
chain 1: XLYSALANKCCHVGCTKRSLARFC
chain 2: ASWMEEVIKLCGRELVRAQIAICGMSTWS
peptide: KGGGSEE
modifications: not fully specified; Glu^γ bonded by amide to fatty acid -C14-COOH; oxime-linked to pAcF of the A chain; pAcF (para-acetyl-L-phenylalanine) at position 1, oxime-linked to PK enhancer KGGGSE-Glu^γ-C14-COOH
B17: AQ1-EAQKAQAEAQKAQAEAQKAQA-Glu^γ-C15-COOH (ligand)
chain 1: XLYSALANKCCHVGCTKRSLARFC
chain 2: ASWMEEVIKLCGRELVRAQIAICGMSTWS
peptide: EAQKAQAEAQKAQAEAQKAQAE
modifications: not fully specified; Glu^γ bonded by amide to fatty acid -C15-COOH; oxime-linked to pAcF of the A chain; pAcF (para-acetyl-L-phenylalanine) at position 1, oxime-linked to PK enhancer EAQKAQAEAQKAQAEAQKAQA-Glu^γ-C15-COOH

molecular target: T1, human RXFP1 receptor (human, UniProt Q9HBX9 1-757); assay: cell-based or functional assay
T1 sequence (looked up): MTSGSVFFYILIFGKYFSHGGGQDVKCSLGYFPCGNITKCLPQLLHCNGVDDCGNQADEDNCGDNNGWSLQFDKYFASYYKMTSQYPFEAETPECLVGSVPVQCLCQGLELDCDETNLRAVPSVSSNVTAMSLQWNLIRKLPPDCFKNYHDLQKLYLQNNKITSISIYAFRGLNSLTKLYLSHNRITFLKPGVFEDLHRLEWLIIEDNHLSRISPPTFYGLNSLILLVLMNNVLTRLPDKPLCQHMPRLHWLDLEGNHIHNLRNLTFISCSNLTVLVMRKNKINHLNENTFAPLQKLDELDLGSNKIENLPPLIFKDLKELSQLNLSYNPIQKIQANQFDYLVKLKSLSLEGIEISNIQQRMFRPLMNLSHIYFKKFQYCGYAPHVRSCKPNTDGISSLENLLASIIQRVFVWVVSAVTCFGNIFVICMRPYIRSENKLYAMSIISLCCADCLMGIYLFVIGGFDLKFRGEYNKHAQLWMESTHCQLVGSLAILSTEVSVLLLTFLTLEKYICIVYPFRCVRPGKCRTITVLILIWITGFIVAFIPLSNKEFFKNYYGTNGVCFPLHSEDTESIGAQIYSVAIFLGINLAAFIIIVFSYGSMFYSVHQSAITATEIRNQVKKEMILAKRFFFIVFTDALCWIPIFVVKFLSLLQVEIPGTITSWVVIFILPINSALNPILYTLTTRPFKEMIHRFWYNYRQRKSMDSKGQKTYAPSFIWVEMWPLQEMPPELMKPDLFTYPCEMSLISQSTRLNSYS

B1 and B2 are within 1.5-fold of each other in “hRXFP1/CHO-K1 cAMP EC50 (nM, avg)” value: 0.27 nM for the first, 0.38 nM for the second.

Going from B3 to B4, the “hRXFP1/CHO-K1 cAMP EC50 (nM, avg)” value rises from 0.1 nM to 1.81 nM (18-fold).

Going from B5 to B6, the “hRXFP1/CHO-K1 cAMP EC50 (nM, avg)” value rises from 0.4 nM to 3.22 nM (8.1-fold).

B7 and B8 are the same in “hRXFP1/CHO-K1 cAMP EC50 (nM, avg)” value: 0.34 nM for the first, 0.34 nM for the second.

Going from B9 to B10, the “hRXFP1/CHO-K1 cAMP EC50 (nM, avg)” value falls from 0.67 nM to 0.35 nM (1.9-fold).

B11 and B12 are within 1.5-fold of each other in “hRXFP1/CHO-K1 cAMP EC50 (nM, avg)” value: 0.32 nM for the first, 0.28 nM for the second.

Compared with B13, B14 is 2.1-fold higher in “hRXFP1/CHO-K1 cAMP EC50 (nM, avg)” value: 0.16 nM for the first, 0.34 nM for the second.

Compared with B15, B16 is 1.6-fold higher in “hRXFP1/CHO-K1 cAMP EC50 (nM, avg)” value: 0.23 nM for the first, 0.37 nM for the second.

With B17 the “hRXFP1/CHO-K1 cAMP EC50 (nM, avg)” value was 4.96 nM.

Source: patent US20220211812A1 (Bristol-Myers Squibb, published 2022)
